Biological target: p53(1-360) (Homo sapiens, UniProt P04637 P04637:1-360)
Assay: EMSA; 0.10 nM DNA, 12 uM p53(1-360), PBS, 25 C, 2 ug poly(dI-dC) competitor, 1 h; 6% gel in TBM
Details: tags: HiCaM tag (His6-calmodulin) removed by thrombin; expressed in E. coli BL21(DE3)Star; chain copies: 4 inferred; label: 32P
Procedure: Functional Assays of purified, untagged constructs—The excitation and emission spectra (excited at 488 nm) of eGFP were recorded from 300 to 700 nm at 25° C. in a Fluoromax-3 Spectrofluorometer. For p53(1-360), a ³²P-labelled restriction fragment harbouring an icosamer recognition sequence (5′-[…]-3′ (SEQ ID NO:6)) (0.10 nM) was incubated alone, with 50 ng/μL BSA or 12 μM p53(1-360) in PBS at 25° C. with 2 μg poly(dI-dC)˜poly(dl-dC) for 1 hour before separation in a 6% polyacrylamide gel in TBM buffer at 25 V/cm. The gel was then exposed to a phosphor screen for 1 hour and imaged in a Typhoon® Phosphorimager (GE Healthcare). Human p53(1-360) (7 μM) was also crosslinked with 0.125% glutaraldehyde at 25° C. for 12 min. and separated on SDS-PAGE, followed by Coomassie Blue staining (Poon et al. 2007).

Chain of p53(1-360) (P04637 1-360, one chain of several): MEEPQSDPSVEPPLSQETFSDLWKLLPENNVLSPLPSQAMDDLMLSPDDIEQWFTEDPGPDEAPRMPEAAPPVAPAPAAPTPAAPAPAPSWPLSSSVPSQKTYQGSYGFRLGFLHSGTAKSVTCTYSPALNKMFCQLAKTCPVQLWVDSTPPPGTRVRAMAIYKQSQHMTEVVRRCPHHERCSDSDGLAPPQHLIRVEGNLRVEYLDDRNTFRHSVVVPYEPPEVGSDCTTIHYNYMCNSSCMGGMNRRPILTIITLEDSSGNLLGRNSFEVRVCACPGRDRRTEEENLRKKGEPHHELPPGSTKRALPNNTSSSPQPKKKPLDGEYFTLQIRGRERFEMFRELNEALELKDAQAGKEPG

B1: p53 icosamer recognition sequence (dsDNA)
DNA 1: AGGCATGTCTAGGCATGTCT
DNA 2: AGACATGCCTAGACATGCCT
binding result: binds
